From the supplement of paper PMC9732359
± gives the uncertainty stated by the source.

Assay: protein stability index of a GFP-peptide fusion (yeast GPS) (PSI 1-4); higher = more stable; sorted into four equal gates, so the index is relative within each strain
Summary of the method: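 Peptides tiling yeast proteins in 17-residue segments were fused downstream of GFP, with Cherry expressed from the same plasmid. As a pooled library in yeast, mid-log cultures grown in leucine-free medium were sorted into four equal gates by GFP/Cherry fluorescence ratio. Gate plasmids were PCR-amplified and Illumina-sequenced, and barcodes linked reads to strains. Each peptide received a protein stability index equal to the sum of each gate's read frequency times its gate number.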

Sequence | protein stability index (doa10∆) | protein stability index (pdr5∆) | protein stability index (san1∆) | protein stability index (ubr1∆)
VNYNSDMIKCFLPKLNS [NUT1] | 2.66 ± 0.13 | 1.98 ± 0.12 | 2.06 ± 0.13 | 1.27 ± 0.066
IKNFKSLLLSSSFKEDC [SSN2] | 2.82 ± 0.11 | 2.98 ± 0.094 | 2.96 ± 0.086 | 3.11 ± 0.086
KKGVRVTLDITTLTIMR [RPT4] | 2.48 ± 0.093 | 2.08 ± 0.11 | 2.23 ± 0.079 | 2.56 ± 0.082
TNFKEEITDASLNLQYV [YML103C/NUP188] | 3.08 ± 0.12 | 3.06 ± 0.084 | 3.18 ± 0.13 | 3.06 ± 0.087
ILRKSFDFLMNMPNCDY [RPN2] | 1.3 ± 0.099 | 1.1 ± 0.092 | 1.23 ± 0.12 | 1.16 ± 0.041
KNRSTIFWGIRLAKSTE [BRR2] | 3.04 ± 0.29 | 2.97 ± 0.16 | – | 2.95 ± 0.17
SEGISEATREVFGISKT [ITC1] | – | 3.42 ± 0.16 | – | 3.28 ± 0.2
GKQVFSLLIKPNHNSPV [RPO31] | – | 3.33 ± 0.28 | – | –
DKLKVYKQAMNETSEQL [SNF5] | 3.17 ± 0.11 | 3.39 ± 0.15 | 3.13 ± 0.12 | 3.11 ± 0.11
TVSPTQDKDAIRKQPDD [SIR2] | 2.99 ± 0.076 | 3.11 ± 0.087 | 2.99 ± 0.067 | 2.9 ± 0.096
KIKDNKEKIKNNRQLPY [RPT5] | 3.23 ± 0.12 | 3.24 ± 0.16 | 3.18 ± 0.1 | 2.86 ± 0.1
LTHRLGGDTCSSDGALC [POP1] | 2.96 ± 0.11 | 3.39 ± 0.084 | 3.17 ± 0.12 | 3.19 ± 0.054
LLNHGERAELETDEYIS [RPN1] | 1.55 ± 0.16 | 1.87 ± 0.083 | 3.08 ± 0.11 | 2.66 ± 0.11
VTRLFFICSIIQTVVIS [YML031W/NDC1] | 1.23 ± 0.051 | 1.28 ± 0.046 | 1.46 ± 0.076 | 1.75 ± 0.05
REGSSARTIKATLPYIK [RPB2] | 2.42 ± 0.067 | 3.17 ± 0.077 | 2.85 ± 0.061 | 2.69 ± 0.059
IEEQDKKVQALQSDKNF [ITC1] | 3.23 ± 0.076 | 3.11 ± 0.054 | 3.14 ± 0.045 | 3.16 ± 0.036
NYHPMNIDETSDEVSRG [SMC4] | 3.17 ± 0.082 | 3.17 ± 0.064 | 3.23 ± 0.054 | 3.14 ± 0.041
MENILQRCKSNAISLQL [YIL149C/MLP2] | 1.9 ± 0.046 | 2 ± 0.048 | 2.05 ± 0.071 | 1.57 ± 0.046
RKLINYTKKHLSSHSST [RPN4] | 1.34 ± 0.063 | 1.71 ± 0.049 | 1.41 ± 0.088 | 1.28 ± 0.04
LNSNNSIIGNKNNNYTW [REC8] | 2.86 ± 0.14 | 2.76 ± 0.1 | 2.87 ± 0.07 | 2.41 ± 0.072
KLSQYVQEMALGGPITK [FAS2] | 2.6 ± 0.083 | 2.74 ± 0.055 | 2.96 ± 0.049 | 2.53 ± 0.031
EKCKEINVETVYDIMAL [BRR2] | 2.28 ± 0.059 | 2.44 ± 0.049 | 2.57 ± 0.07 | 2.5 ± 0.046
ITDKGTVDGRLYQLFKT [YJL039C/NUP192] | 3.19 ± 0.11 | 3.46 ± 0.097 | 3.3 ± 0.069 | 3.46 ± 0.094
FDDSDITKFALFAESHD [YML103C/NUP188] | 2.71 ± 0.3 | – | 2.92 ± 0.15 | –
NVVPYHRNTSDYYYEDA [SWI1] | 2.85 ± 0.085 | 3.13 ± 0.075 | 3.03 ± 0.08 | 3.08 ± 0.055
SLQSSSQTQLENANAAN [MED2] | 1.96 ± 0.075 | 2.6 ± 0.056 | 2.64 ± 0.091 | 1.33 ± 0.035
RRRLLGPAAAKPMAFSN [MTR3] | 3.06 ± 0.071 | 3.17 ± 0.055 | 3.23 ± 0.057 | 3.21 ± 0.038

Sequence | protein stability index (doa10∆) | protein stability index (pdr5∆) | protein stability index (san1∆) | protein stability index (ubr1∆)
QRARDQDSIDISIKDNK [GAL11] | 3.25 ± 0.1 | 3.12 ± 0.12 | 3.31 ± 0.086 | 3.13 ± 0.086
AVGNLGNAIEVTEDGSI [RPL22B] | 1.16 ± 0.13 | 1.45 ± 0.098 | 1.24 ± 0.19 | 1.27 ± 0.05
AAGSYYVEAQHKLVFVV [RPL7A] | 2.33 ± 0.072 | 2.74 ± 0.048 | 2.26 ± 0.069 | 2.4 ± 0.044
MSRPQVTVHSLTGEATA [RPL4A] | 1.59 ± 0.09 | 2.28 ± 0.07 | 1.88 ± 0.059 | 2.07 ± 0.082
GLVNHRVGVKLKFNSTE [SMX3] | 2.48 ± 0.052 | 2.24 ± 0.04 | 1.94 ± 0.056 | 1.48 ± 0.036
ENEDGNIEERKEKIQHE [BRR2] | 3.23 ± 0.14 | 3.47 ± 0.1 | 3.57 ± 0.092 | 3.3 ± 0.15
PDFLSKYSAITSSIFQE [NUT1] | 1.88 ± 0.041 | 2.05 ± 0.042 | 2.05 ± 0.06 | 2 ± 0.033
INIKYLRLDGHTKSDER [SNF2] | 3.1 ± 0.083 | 2.11 ± 0.063 | 2.29 ± 0.098 | 2.79 ± 0.063
VFEISENNSDSNSNNNG [SWI1] | 2.89 ± 0.15 | 3.03 ± 0.11 | 3.15 ± 0.12 | 3.28 ± 0.15
TILCTPTGGKAKLSEGT [RPS27A] | 2.83 ± 0.097 | 2.85 ± 0.1 | 3.12 ± 0.072 | 2.74 ± 0.056
KHWQERVKVHFDQAGKK [RPL13A] | 2.31 ± 0.046 | 2.33 ± 0.047 | 2.28 ± 0.064 | 2.35 ± 0.036
YGGDGLDPLEMEGNAQP [RPO31] | 3.39 ± 0.081 | 3.43 ± 0.09 | 3.28 ± 0.07 | 3.29 ± 0.089
AHRVRDLMDEELRKHAQ [SKI6] | 3.14 ± 0.14 | 3.39 ± 0.12 | 2.83 ± 0.12 | 3.29 ± 0.064
NQLEDFILELEHKTPEL [YIL149C/MLP2] | 2.74 ± 0.14 | 3.28 ± 0.16 | 3.07 ± 0.14 | 3.35 ± 0.12
EIDVENHDRINISNNLQ [RPN8] | 3.21 ± 0.061 | 3.26 ± 0.082 | 3.32 ± 0.043 | 3.21 ± 0.054
DNLGQTKIIMATNRPDT [RPT4] | 2.76 ± 0.084 | 2.56 ± 0.1 | 2.79 ± 0.079 | 2.67 ± 0.079
TTLKSVTIASEIYYDPD [RPO21] | 2.75 ± 0.1 | 2.45 ± 0.085 | 2.82 ± 0.099 | 2.24 ± 0.055
GIVSVSDPQMKVFDTLT [RPN1] | 2.81 ± 0.16 | 2.93 ± 0.12 | 2.87 ± 0.16 | 2.82 ± 0.13
FVDLNEKELQNEIKQLG [SRB4] | 2.31 ± 0.072 | 2.41 ± 0.17 | 2.13 ± 0.2 | 2.78 ± 0.14
DANGVSLFELIVPIFQL [YJL039C/NUP192] | 2.37 ± 0.053 | 2.08 ± 0.049 | 2.25 ± 0.062 | 2.14 ± 0.032
YIDEMYNHNDGGDGRDY [RRI1] | 2.47 ± 0.1 | 3.26 ± 0.1 | 3.3 ± 0.21 | 2.75 ± 0.13
ELDSKTRKILEILNECH [MED4] | 3.21 ± 0.074 | 3.22 ± 0.06 | 3.27 ± 0.037 | 3.21 ± 0.043
RDLKPSNLEKLLFINSS [YML103C/NUP188] | 1.93 ± 0.11 | 1.91 ± 0.093 | 1.66 ± 0.13 | 1.69 ± 0.1
TVSPDFVAATTNAGYTI [FAS1] | 2.71 ± 0.065 | 2.71 ± 0.053 | 2.32 ± 0.12 | 2.56 ± 0.058
IQPTAKVVYIQRRSWRQ [DIS3] | 1.52 ± 0.1 | 1.48 ± 0.072 | 1.31 ± 0.13 | 1.16 ± 0.12
VPVIVKARFVSKLAEEK [RPL28] | 2.71 ± 0.024 | 2.832 ± 0.024 | 2.786 ± 0.018 | 2.861 ± 0.02
TGWISKCTAEGIKVSLL [RPC25] | 2.9 ± 0.14 | 3.12 ± 0.15 | 2.66 ± 0.08 | 2.95 ± 0.15

Sequence | protein stability index (doa10∆) | protein stability index (pdr5∆) | protein stability index (san1∆) | protein stability index (ubr1∆)
VSTAAAATVRSTIRRLR [RPL43A] | 2.54 ± 0.076 | 2.8 ± 0.07 | 2.13 ± 0.1 | 2.95 ± 0.057
PISISNAPTFNPKYDTS [YAR002W/NUP60] | 3.03 ± 0.076 | 3.08 ± 0.068 | 2.71 ± 0.059 | 3.07 ± 0.06
TNVEDPLAKKQTVRLIK [SIR2] | 2.82 ± 0.077 | 3.08 ± 0.067 | 2.77 ± 0.056 | 2.96 ± 0.06
AHMSIGCLHKGKLISNL [YML031W/NDC1] | 2.04 ± 0.079 | 1.9 ± 0.058 | 2.14 ± 0.15 | 1.83 ± 0.065
LLPANLLSLNSVRSLQK [SRP68] | 2.71 ± 0.059 | 2.48 ± 0.063 | 2.49 ± 0.057 | 2.81 ± 0.046
SLTRDFEQCCKEKKELQ [YIL149C/MLP2] | 2.87 ± 0.089 | 3.01 ± 0.089 | 3 ± 0.1 | 3.14 ± 0.11
PHLLKQGLAMVEKYAPD [RRP42] | 2.02 ± 0.13 | 2.35 ± 0.11 | – | –
ILGDLGKEFGTTPEKPE [FAS2] | 2.83 ± 0.087 | 2.69 ± 0.072 | 2.51 ± 0.057 | 2.78 ± 0.066
SFTQGELNDLKWGRNQP [YMR129W/POM152] | 3.04 ± 0.15 | 2.84 ± 0.09 | 3.14 ± 0.091 | 2.78 ± 0.074
FVMKTRRRKGISTGGFM [SNU114] | 3.44 ± 0.15 | – | – | 3.18 ± 0.11
RCFENLQNKSFKSVLPI [UBP6] | 2.35 ± 0.076 | 1.98 ± 0.09 | 2.05 ± 0.12 | 2.45 ± 0.057
DTPTSGKHNLTIWCVCD [BRR2] | 3.05 ± 0.11 | 3.22 ± 0.1 | 3.14 ± 0.075 | 3.08 ± 0.082
VQSKARYTVRTFGIRRN [RPL11A] | 1.78 ± 0.083 | 1.86 ± 0.073 | 1.35 ± 0.11 | 1.53 ± 0.086
RIPFSERKLKFSNRFLP [FAS1] | 1.28 ± 0.084 | 1.17 ± 0.077 | 1.11 ± 0.13 | 1.31 ± 0.084
IPYGPDFDNIEFKKIPR [SEC65] | 3.21 ± 0.093 | 3.1 ± 0.11 | 2.87 ± 0.075 | 3.17 ± 0.084
ARVTGGMKVKADRDESS [RPS14B] | 2.5 ± 0.072 | 2.92 ± 0.067 | 3.12 ± 0.05 | 3.03 ± 0.043
YVKDARKDTVSREVLRY [RPC40] | 3.64 ± 0.13 | 3.2 ± 0.14 | 3.33 ± 0.071 | 3.21 ± 0.11
ENEVENINATNTSVLMK [YCS4] | 3.3 ± 0.16 | 3.02 ± 0.12 | 3.09 ± 0.091 | 3.36 ± 0.087
GAEVLIKGSKLSLGEAF [COR1] | – | – | 2.32 ± 0.15 | 2.37 ± 0.1
TAGNWVASQTVKKVIEI [PRE2] | 3.18 ± 0.12 | 3.35 ± 0.084 | 2.77 ± 0.069 | 3.23 ± 0.081
SAIIENAFRKEELLLKD [GAL11] | – | 1.14 ± 0.16 | – | 1.18 ± 0.22
LTIDDLGVASFHGTSTK [FAS2] | 2.99 ± 0.063 | 3.01 ± 0.071 | 3.03 ± 0.06 | 3.01 ± 0.047
DRSKLKKGVRVTLDITT [RPT4] | – | 2.87 ± 0.2 | 2.4 ± 0.089 | 2.57 ± 0.14
PLSESLRLVDDDENNPS [RRP6] | 3.15 ± 0.11 | 3.12 ± 0.096 | 2.98 ± 0.084 | 3.08 ± 0.084
LPSWSLGKWYSKEDYET [ARP7] | 1.62 ± 0.17 | 1.12 ± 0.14 | – | 1.09 ± 0.11
